Key:
Assay in all cases: holdup assay
Design in all cases: key: below the threshold = too weak to quantify, mostly under pKd 3.1 to 4
Settings in all cases: plain residues with an end cap or a label only (N-terminal biotin on a linker: ado-ado)
SNTB1, Q13884 = molecular target: T1, SNTB1, Q13884
T1 sequence (Q13884 107-205, limits assumed, looked up): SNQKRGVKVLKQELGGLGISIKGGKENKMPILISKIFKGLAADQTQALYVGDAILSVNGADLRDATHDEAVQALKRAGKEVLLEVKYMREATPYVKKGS

IL16_4, Q14005 = molecular target: IL16_4, Q14005
Chain of IL16_4, Q14005 (Q14005 1229-1329): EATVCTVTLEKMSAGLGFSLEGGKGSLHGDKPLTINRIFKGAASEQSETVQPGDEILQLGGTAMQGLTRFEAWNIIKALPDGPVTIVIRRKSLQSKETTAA

GRIP2_7, Q9C0E4 = molecular target: GRIP2_7, Q9C0E4
Chain of GRIP2_7, Q9C0E4 (Q9C0E4 934-1023): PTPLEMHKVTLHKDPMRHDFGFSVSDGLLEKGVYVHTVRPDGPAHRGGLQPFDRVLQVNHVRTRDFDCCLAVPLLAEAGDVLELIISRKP

RADIL, Q96JH8 = molecular target: T2, RADIL, Q96JH8
T2 sequence (Q96JH8 971-1071, limits assumed, looked up): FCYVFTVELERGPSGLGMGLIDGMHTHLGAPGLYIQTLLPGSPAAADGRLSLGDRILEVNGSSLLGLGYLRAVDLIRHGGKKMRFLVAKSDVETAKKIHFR

PICK1, Q9NRD5 = molecular target: PICK1, Q9NRD5
Chain of PICK1, Q9NRD5 (Q9NRD5 17-115): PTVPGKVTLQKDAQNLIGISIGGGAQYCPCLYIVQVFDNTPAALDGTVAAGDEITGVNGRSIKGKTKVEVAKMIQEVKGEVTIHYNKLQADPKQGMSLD

APBA3_1, O96018 = molecular target: T3, APBA3_1, O96018
T3 sequence (O96018 389-490, limits assumed, looked up): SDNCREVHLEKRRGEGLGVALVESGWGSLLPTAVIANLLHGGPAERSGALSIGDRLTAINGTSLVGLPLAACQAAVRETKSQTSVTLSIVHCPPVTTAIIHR

LNX1_2, Q8TBB1 = molecular target: LNX1_2, Q8TBB1
Chain of LNX1_2, Q8TBB1 (Q8TBB1 371-470): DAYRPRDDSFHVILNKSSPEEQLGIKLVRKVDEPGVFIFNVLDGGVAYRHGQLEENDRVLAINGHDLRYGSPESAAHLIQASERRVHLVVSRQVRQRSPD

GRIP2_4, Q9C0E4 = molecular target: GRIP2_4, Q9C0E4
Chain of GRIP2_4, Q9C0E4 (Q9C0E4 446-548): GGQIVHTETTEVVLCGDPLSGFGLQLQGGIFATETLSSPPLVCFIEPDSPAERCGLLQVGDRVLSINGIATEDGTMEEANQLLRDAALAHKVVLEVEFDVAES

MAGI1_2, Q96QZ7 = molecular target: MAGI1_2, Q96QZ7
Chain of MAGI1_2, Q96QZ7 (Q96QZ7 456-580): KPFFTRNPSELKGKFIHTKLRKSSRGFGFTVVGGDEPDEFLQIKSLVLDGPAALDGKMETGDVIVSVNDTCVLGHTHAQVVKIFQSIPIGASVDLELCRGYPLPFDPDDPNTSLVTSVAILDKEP

Inadl_6, Q8NI35 = molecular target: Inadl_6, Q8NI35
Chain of Inadl_6, Q8NI35 (Q8NI35 1058-1167): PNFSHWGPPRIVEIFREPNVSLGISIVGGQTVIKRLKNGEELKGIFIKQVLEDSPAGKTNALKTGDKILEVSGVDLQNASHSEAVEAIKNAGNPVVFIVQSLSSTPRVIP

GORASP1, Q9BQQ3 = molecular target: GORASP1, Q9BQQ3
Chain of GORASP1, Q9BQQ3 (Q9BQQ3 1-208): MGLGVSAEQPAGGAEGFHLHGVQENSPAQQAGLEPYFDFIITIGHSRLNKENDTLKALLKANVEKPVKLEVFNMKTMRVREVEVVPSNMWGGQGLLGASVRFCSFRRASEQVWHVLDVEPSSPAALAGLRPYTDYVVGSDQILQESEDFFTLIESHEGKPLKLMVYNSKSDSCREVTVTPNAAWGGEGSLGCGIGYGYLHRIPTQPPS

MAGI1_1, Q96QZ7 = molecular target: MAGI1_1, Q96QZ7
Chain of MAGI1_1, Q96QZ7 (Q96QZ7 1-106): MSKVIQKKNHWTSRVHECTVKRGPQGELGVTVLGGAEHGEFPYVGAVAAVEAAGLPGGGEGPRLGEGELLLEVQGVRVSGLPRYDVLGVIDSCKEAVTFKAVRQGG

MAGI2_5, Q86UL8 = molecular target: MAGI2_5, Q86UL8
Chain of MAGI2_5, Q86UL8 (Q86UL8 915-1017): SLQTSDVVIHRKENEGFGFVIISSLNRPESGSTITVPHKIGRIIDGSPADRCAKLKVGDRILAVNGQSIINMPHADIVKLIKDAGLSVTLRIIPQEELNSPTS

DLG5_1, Q8TDM6 = molecular target: DLG5_1, Q8TDM6
Chain of DLG5_1, Q8TDM6 (Q8TDM6 617-713): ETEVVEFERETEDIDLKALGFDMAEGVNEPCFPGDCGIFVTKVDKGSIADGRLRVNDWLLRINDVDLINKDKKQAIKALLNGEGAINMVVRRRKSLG

SCRIB_3, Q14160 = molecular target: SCRIB_3, Q14160
Chain of SCRIB_3, Q14160 (Q14160 999-1103): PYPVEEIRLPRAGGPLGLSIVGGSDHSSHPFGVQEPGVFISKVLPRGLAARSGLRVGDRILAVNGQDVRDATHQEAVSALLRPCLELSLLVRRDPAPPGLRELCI

GIPC2, Q8TF65 = molecular target: GIPC2, Q8TF65
Chain of GIPC2, Q8TF65 (Q8TF65 112-203): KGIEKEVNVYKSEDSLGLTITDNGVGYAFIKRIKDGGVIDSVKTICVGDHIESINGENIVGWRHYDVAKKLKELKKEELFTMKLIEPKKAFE

LNX1_3, Q8TBB1 = molecular target: LNX1_3, Q8TBB1
Chain of LNX1_3, Q8TBB1 (Q8TBB1 500-596): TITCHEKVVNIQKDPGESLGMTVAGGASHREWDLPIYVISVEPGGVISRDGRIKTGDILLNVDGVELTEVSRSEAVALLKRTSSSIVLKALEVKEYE

GRIP1_5, Q9Y3R0 = molecular target: T4, GRIP1_5, Q9Y3R0
T4 sequence (Q9Y3R0 568-668, limits assumed, looked up): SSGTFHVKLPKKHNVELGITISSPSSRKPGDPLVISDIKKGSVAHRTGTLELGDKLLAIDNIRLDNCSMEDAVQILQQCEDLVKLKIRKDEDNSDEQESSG

GRIP1_3, Q9Y3R0 = molecular target: T5, GRIP1_3, Q9Y3R0
T5 sequence (Q9Y3R0 247-346, limits assumed, looked up): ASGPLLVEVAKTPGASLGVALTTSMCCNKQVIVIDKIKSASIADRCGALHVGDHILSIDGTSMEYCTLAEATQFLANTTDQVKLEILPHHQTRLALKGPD

TX1BP3, O14907 = molecular target: T6, TX1BP3, O14907
T6 sequence (O14907 10-122, limits assumed, looked up): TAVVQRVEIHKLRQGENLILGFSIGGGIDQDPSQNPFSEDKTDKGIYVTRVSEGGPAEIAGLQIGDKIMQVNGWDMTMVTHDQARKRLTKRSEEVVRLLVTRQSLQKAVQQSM

DFNB31_1, Q9P202 = molecular target: T7, DFNB31_1, Q9P202
T7 sequence (Q9P202 135-233, limits assumed, looked up): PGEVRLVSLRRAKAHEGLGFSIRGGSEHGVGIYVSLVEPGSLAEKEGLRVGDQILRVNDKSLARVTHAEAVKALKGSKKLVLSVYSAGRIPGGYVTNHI

PDZRN3_1, Q9UPQ7 = molecular target: T8, PDZRN3_1, Q9UPQ7
T8 sequence (Q9UPQ7 244-349, limits assumed, looked up): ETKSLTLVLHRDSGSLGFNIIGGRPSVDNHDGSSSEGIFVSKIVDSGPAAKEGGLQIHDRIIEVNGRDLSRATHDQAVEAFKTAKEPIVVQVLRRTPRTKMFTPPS

PDZRN4_1, Q6ZMN7 = molecular target: PDZRN4_1, Q6ZMN7
Chain of PDZRN4_1, Q6ZMN7 (Q6ZMN7 213-318): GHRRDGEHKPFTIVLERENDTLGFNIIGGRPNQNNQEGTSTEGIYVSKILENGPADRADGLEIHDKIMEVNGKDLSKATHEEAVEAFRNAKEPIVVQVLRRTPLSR

DLG4_3, P78352 = molecular target: DLG4_3, P78352
Chain of DLG4_3, P78352 (P78352 306-403): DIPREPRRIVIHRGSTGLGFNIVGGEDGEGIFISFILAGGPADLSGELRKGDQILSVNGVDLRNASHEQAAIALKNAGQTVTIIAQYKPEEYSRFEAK

FRMPD4, Q14CM0 = molecular target: FRMPD4, Q14CM0
Chain of FRMPD4, Q14CM0 (Q14CM0 67-160): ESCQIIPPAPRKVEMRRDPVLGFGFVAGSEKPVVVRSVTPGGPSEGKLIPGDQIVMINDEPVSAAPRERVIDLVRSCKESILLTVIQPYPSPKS

SNX27, Q96L92 = molecular target: SNX27, Q96L92
MAGI2_6, Q86UL8 = molecular target: MAGI2_6, Q86UL8
Chain of MAGI2_6, Q86UL8 (Q86UL8 1141-1229): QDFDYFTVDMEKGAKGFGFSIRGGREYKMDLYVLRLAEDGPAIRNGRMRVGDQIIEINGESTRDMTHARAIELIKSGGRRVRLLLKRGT

LNX1_1, Q8TBB1 = molecular target: LNX1_1, Q8TBB1
Chain of LNX1_1, Q8TBB1 (Q8TBB1 261-371): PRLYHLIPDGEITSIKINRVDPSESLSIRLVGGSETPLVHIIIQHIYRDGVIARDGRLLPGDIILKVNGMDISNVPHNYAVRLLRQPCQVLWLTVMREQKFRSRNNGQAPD

Inadl_1, Q8NI35 = molecular target: Inadl_1, Q8NI35
Chain of Inadl_1, Q8NI35 (Q8NI35 113-229): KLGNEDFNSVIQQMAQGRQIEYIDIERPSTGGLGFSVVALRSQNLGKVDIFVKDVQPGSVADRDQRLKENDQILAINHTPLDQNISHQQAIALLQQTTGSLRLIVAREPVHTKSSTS

Binder: FHSIKQSTAV [CRHR1, P34998]
- pKd (SNTB1, Q13884): 3.75
- pKd (IL16_4, Q14005): below the threshold
- pKd (GRIP2_7, Q9C0E4): below the threshold
- pKd (RADIL, Q96JH8): below the threshold
- pKd (PICK1, Q9NRD5): below the threshold
- pKd (APBA3_1, O96018): below the threshold
- pKd (LNX1_2, Q8TBB1): below the threshold
- pKd (GRIP2_4, Q9C0E4): below the threshold
- pKd (MAGI1_2, Q96QZ7): 5.05
- pKd (Inadl_6, Q8NI35): below the threshold
- pKd (GORASP1, Q9BQQ3): below the threshold
- pKd (MAGI1_1, Q96QZ7): below the threshold
- pKd (MAGI2_5, Q86UL8): 4.38
- pKd (DLG5_1, Q8TDM6): below the threshold
- pKd (SCRIB_3, Q14160): 4.43
- pKd (GIPC2, Q8TF65): below the threshold
- pKd (LNX1_3, Q8TBB1): below the threshold
- pKd (GRIP1_5, Q9Y3R0): below the threshold
- pKd (GRIP1_3, Q9Y3R0): below the threshold
- pKd (TX1BP3, O14907): 4.11
- pKd (DFNB31_1, Q9P202): 4.39
- pKd (PDZRN3_1, Q9UPQ7): 4.17
- pKd (PDZRN4_1, Q6ZMN7): 4.1
- pKd (DLG4_3, P78352): 4.43
- pKd (FRMPD4, Q14CM0): below the threshold
- pKd (SNX27, Q96L92): 4.91
- pKd (MAGI2_6, Q86UL8): 3.83
- pKd (LNX1_1, Q8TBB1): below the threshold
- pKd (Inadl_1, Q8NI35): below the threshold

— paper PMC9482650, “Quantitative fragmentomics allow affinity mapping of interactomes” (Nature Communications, 2022)
